{
  "source": "patent US20210145978A1",
  "about": "“ANTI-CD71 ACTIVATABLE ANTIBODY DRUG CONJUGATES AND METHODS OF USE THEREOF” (AbbVie Inc., priority 2017, published 2021)",
  "molecules": {"B1": {"name": "Ab21.12-vc-MMAE E2: unmasked parental anti-CD71 antibody drug conjugate (ADC), Ab21.12 with vc-MMAE (conjugate)", "VH": "QVQLVQSGAEVKKPGASVKMSCKASGYTFTSYWMHWVRQAPGQGLEWIGAIYPGNSETGYAQKFQGRATLTADTSTSTAYMELSSLRSEDTAVYYCTRENWDPGFAFWGQGTLITVSS", "VL": "DIQMTQSPSSLSASVGDRVTITCSASSSVYYMYWFQQKPGKAPKLWIYSTSNLASGVPSRFSGSGSGTDYTLTISSMQPEDFATYYCQQRRNYPYTFGQGTKLEIK", "modifications": "vc-MMAE conjugate, DAR ~2", "notes": "unmasked parental anti-CD71 antibody drug conjugate (ADC), Ab21.12 with vc-MMAE"}, "B2": {"name": "Ab 21.12-vc-M MAE: anti-CD71 Ab 21.12 conjugated to vc-MMAE; DAR not stated in Table 3B (conjugate)", "VH": "B1 VH", "VL": "B1 VL", "modifications": "vc-MMAE conjugate"}, "B3": {"name": "Ab21.12: humanized anti-CD71 antibody, VH of SEQ ID NO: 5 and VL of SEQ ID NO: 7 (antibody, V domains shown)", "VH": "B1 VH", "VL": "B1 VL"}},
  "key": {"[1]": {"test": "Non-GLP pilot toxicity studies in cynomolgus monkeys", "assay_type": "in vivo, cynomolgus monkey", "method": "Terminal necropsies were performed on the test animals on day 29 (7 days after the last dose). Assessments during the study included clinical signs, body weight, food consumption, clinical pathology, anatomic pathology, TK, and immunogenicity."}, "[2]": {"test": "Tolerability and stability of AADCs and ADC in cynomolgus monkeys (Example 10)", "assay_type": "in vivo, cynomolgus monkey", "method": "In this study, cynomolgus monkeys were treated intravenously with the indicated AADC or ADC with the indicated dosage at days 1 and […]. Only one dose was tolerated for anti-CD71 TF02.13-3011-vc-MMAE AADC and only one dose was administered for anti-CD71-vc-MMAE E2 (i.e. having a DAR of ˜2) ADC. The stability of the activatable antibodies (i.e. total activatable antibody vs intact activatable antibody) in the samples obtained from each animals was performed as described in Example 9 using reverse phase LC/MS/MS)\nThe body weight loss was determined on the lowest measure weight following the 1st administered dose. The baseline neutrophil count was at least 1000 per μL."}, "[3]": {"tested_on": "cynomolgus CD71 on CHO cells", "test": "FACS binding to cells, Table 3B", "conditions": "binding curves of FIG. 3D; read-out: CHO w/ Cynomolgus CD71 FACS EC50", "from_the_text": "(§1) FIGS. 3C and 3D show in a FACS assay the exemplary results that anti-CD71 activatable antibodies of the present disclosure and anti-CD71 conjugated activatable antibodies of the present disclosure bind cells expressing human CD71 (FIG. 3C) and cynomolgus CD71 (FIG. 3D) with a higher dissociation constant and lower affinity than that of the corresponding protease-activated anti-CD71 activatable antibody or protease-activated anti-CD71 conjugated activatable antibody of the present disclosure.\n(§2) In the exemplary study shown in FIGS. 3C and 3D, the binding of the antibodies of the present disclosure to the indicated cell lines were performed using a standard FACS labelling method. […] In addition, the binding affinity of the anti-CD71 activatable antibody (anti-CD71 TF02.13-2011 (Act)) and the E2 (i.e. having a DAR of ˜2) anti-CD71 conjugated activatable antibody (anti-CD71 TF02.13-2011-vcMMAE E2 (Act)) were also assayed following protease-activation that cleaved the cleavable moiety therein. Each test article was applied at the indicated concentrations and subsequently detected with an Alexa Fluor 647 labeled goat anti-human IgG secondary antibody."}, "[4]": {"target": "T1, human CD71 on H292 cells (Homo sapiens, UniProt P02786)", "T1 construct": "endogenous in cells; host or cells: NCI-H292", "T1 sequence (P02786 whole entry)": "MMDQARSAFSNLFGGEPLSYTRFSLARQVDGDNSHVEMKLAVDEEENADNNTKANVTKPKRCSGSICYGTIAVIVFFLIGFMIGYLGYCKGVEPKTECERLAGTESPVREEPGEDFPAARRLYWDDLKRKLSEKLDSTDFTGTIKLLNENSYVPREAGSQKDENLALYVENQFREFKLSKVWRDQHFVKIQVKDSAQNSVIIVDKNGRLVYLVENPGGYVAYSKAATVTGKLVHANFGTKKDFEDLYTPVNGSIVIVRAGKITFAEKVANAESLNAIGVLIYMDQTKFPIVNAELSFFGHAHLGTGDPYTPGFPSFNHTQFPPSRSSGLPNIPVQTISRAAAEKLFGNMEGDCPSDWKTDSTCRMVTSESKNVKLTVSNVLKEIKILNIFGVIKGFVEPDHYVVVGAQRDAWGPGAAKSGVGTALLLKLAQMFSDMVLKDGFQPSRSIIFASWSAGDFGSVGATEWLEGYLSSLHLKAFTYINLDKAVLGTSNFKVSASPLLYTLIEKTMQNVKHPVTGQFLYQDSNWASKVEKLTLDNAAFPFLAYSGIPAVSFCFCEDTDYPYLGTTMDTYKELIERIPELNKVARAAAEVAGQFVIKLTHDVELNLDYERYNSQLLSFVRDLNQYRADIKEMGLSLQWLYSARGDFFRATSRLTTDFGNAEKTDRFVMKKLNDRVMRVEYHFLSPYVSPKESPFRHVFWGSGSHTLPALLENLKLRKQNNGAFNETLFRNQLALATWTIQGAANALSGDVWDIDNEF", "test": "FACS binding to cells, Table 3B", "conditions": "binding curves of FIG. 3C", "from_the_text": "as §1, §2"}, "[5]": {"target": "T2, CD71 on NCI H292 cells (Homo sapiens, UniProt P02786)", "T2 construct": "endogenous in cells; host or cells: NCI-H292", "T2 sequence (P02786 whole entry)": "as above", "test": "FACS binding to NCI H292 cells, masking efficiency (Example 3)", "conditions": "relative to parental Ab 21.12", "method": "Binding of anti-CD71 activatable antibodies of the present disclosure to the NCI H292 (also referred to herein as H292) cell line was evaluated using FACS. Briefly, cells were labeled with huCD71 antibody or activatable antibody at a range of concentrations and subsequently detected with an Alexa Fluor 647 labeled goat anti-human IgG secondary antibody to determine a binding curve."}, "[6]": {"conditions": "0.6 mg/kg, q3wx2, non-GLP study"}},
  "data": [
    {"molecule": "B1", "values": [
      {"measurement": "Average neutrophil count ± SD", "setting": "[1]; [6]", "result": "280 ± 42"},
      {"measurement": "Body weight loss", "setting": "[1]; [6]", "result": 4, "unit": "%"},
      {"measurement": "Tolerability", "setting": "[1]; [6]", "result": "Tolerated"},
      {"measurement": "Average neutrophil count ± SD", "setting": "[1]; 2 mg/kg, q3wx2, non-GLP study", "result": 70},
      {"measurement": "Body weight loss", "setting": "[1]; 2 mg/kg, q3wx2, non-GLP study", "result": 6, "unit": "%"},
      {"measurement": "test article-related findings", "setting": "[1]; 0.6 to 18 mg/kg IV bolus", "result": "consisted primarily of hematologic toxicity"},
      {"measurement": "toxicity (hunched posture, decreased activity, body temperature elevation)", "setting": "[1]; 6 and 2 mg/kg", "result": "Severe toxicity"},
      {"measurement": "time to lack of tolerability after a single dose", "setting": "[1]; single dose at 2 mpk", "result": "≤ 8", "unit": "days"},
      {"measurement": "mortality", "setting": "[1]; single dose at >2 mg/kg", "result": "mortality attributed to secondary infection was observed"},
      {"measurement": "Avg. Neutrophil Count ± SD (per μL)", "setting": "[2]; 2 mg/kg IV, one dose, baseline at least 1000 per μL", "result": 70, "unit": "per μL"},
      {"measurement": "Body weight loss", "setting": "[2]; 2 mg/kg IV, one dose, lowest weight after 1st dose", "result": "~8", "unit": "%"},
      {"measurement": "lethality, time after the first dose", "setting": "[2]; non-masked E2 ADC, cynomolgus monkeys (2 mg/kg in Table 5)", "result": "≤ 8", "unit": "days"}
    ]},
    {"molecule": "B2", "values": [
      {"measurement": "EC50", "setting": "[3]", "result": 0.291, "unit": "nM"}
    ]},
    {"molecule": "B3", "values": [
      {"measurement": "EC50", "setting": "[4]", "result": 1.02, "unit": "nM"},
      {"measurement": "Masking Efficiency", "setting": "[5]", "result": 1}
    ]}
  ]
}
